Laboratory results from the RNAGym collection of RNA variant scans (doi:10.1073/pnas.2313332121).

B1: TPR t1 (parent)
chain: GACCAAUCUGCCCUCAGAGCUCGAGAACAUCUUCGGAUGCAGAGGAGGCAGGCUUCGGUGGCGCGAUAGCGCCAACGUCCUCAACCUCCAAUGCAUCCCACCACAUGAUGAUGCCUGAAGAGCCUUGGUUUUUUG

Variants of: B1
Assay: polymerase ribozyme fitness, log enrichment relative to wild type (log ratio); higher = more active; in vitro selection for triplet polymerase activity
Summary of the method: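 Only genotypes with ≥10 input reads and ≥1 read per output were kept after Illumina sequencing of input and output libraries. These libraries were PCR-built, transcribed mutants of each subunit of a heterodimeric triplet polymerase ribozyme, each put through one triplicate in vitro selection round with frozen incubation at −7 °C, gel excision of extended constructs, streptavidin-bead capture and RT-PCR. Fitness is a logarithmic ratio of genotype enrichment to wild-type enrichment, from inverse-variance-weighted replicate averages, with the logarithm in base 2.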

Row | Variant | polymerase ribozyme fitness (log ratio)
1 | G63U G117C | -4.05
2 | G63U G117A | -1.66
3 | C64U A100U | -0.493
4 | G63U C101U C115U C124U | -3.55
5 | C64G C82G C89U A100G A111C U116A U129G | -5.44
6 | C64U A90U A100U | -3.1
7 | G63U U133A | -2.29
8 | C64U G113C | -0.91
9 | C64U G113U | -2.54
10 | C64G G120C | -4.47
11 | C64A U106C | -6.82
12 | C64U | -0.125
13 | C64A | -6.28
14 | C64G | -6.67
15 | G63U C89U G93A G120A | -1.65
16 | G63U U125A | -1.51
17 | C64U C101U | 0.0607
18 | C64G C114G | -6.51
19 | C64G C114U | -6.35
20 | C64U A84C C123G G135C | 1.41
21 | G63U U131A | -0.516
22 | C64G G113A | -6.17
23 | G63U C99U U106A | -3.55
24 | G63U C94G A121U | 0.0576

Row | Variant | polymerase ribozyme fitness (log ratio)
25 | G63U C104U | -1.36
26 | C64U C80U C88U A111G C114A | -5.18
27 | C64U A121G | 1.93
28 | C64G A66G G69C C82A A105U | -3.01
29 | C64U C76G C85A | -3.38
30 | C64U G117C C123U | -4.94
31 | C64G C124U | -5.45
32 | C64U G120C | 0.769
33 | C64U C89A | -1.58
34 | C64U C89U | -0.57
35 | C64U C89G | -1.73
36 | C64U G107U | -5.43
37 | C64U C72U A83G U133G | -1.1
38 | G63U C89G | -1.88
39 | C64U G127U | -0.401
40 | C64U C72A A108C | -5.82
41 | G63U U132A | -0.852
42 | G63U U132C | -2.69
43 | C64U A91C G93A G120A U133G | -1.92
44 | C64U A83G A111C | -2.93
45 | C64U G71U | -2.96
46 | C64U C85A U96G U125A | -2.82
47 | G63U G120A U129G | -2.16
48 | C64U A90U | -0.99

Row | Variant | polymerase ribozyme fitness (log ratio)
49 | C64A G120C U125G | -7.86
50 | C64A G65A C97U G120A | -5.01
51 | G63U U81G A121C | -3.58
52 | C64U A95G C115G | -2.07
53 | C64A U87A G93A U112A | -5.11
54 | C64A C86U A103U C114A | -6.49
55 | G63U U78G G107U A111U U116C | -6
56 | G63U C124A | 0.583
57 | G63U C124G | 0.287
58 | C64A U112C | -4.53
59 | G63U G127U | -1.73
60 | G63U U109G | -6.35
61 | G63U G77C C124U | -0.341
62 | G63U C98U | -2.09
63 | G63U C98A | -6.63
64 | C64U A83U A95G G127C | -2.12
65 | C64U G69U G128C | -3.93
66 | C64A G110A G120A | -7.98
67 | C64G U78G G120A A121G C123A U131C | -4.99
68 | C64A A90G U112G | -5.49
69 | G63U G107A | -4.13
70 | C64G U87A C124A | -5.74
71 | C64U C82A C124A | 1.31
72 | C64U C86A G135U | -2.35

Row | Variant | polymerase ribozyme fitness (log ratio)
73 | C64G C88U | -5.96
74 | C64U A84U U87A | -1.17
75 | G63U C115U | -3.37
76 | G63U C115G | -2.29
77 | G63U C115A | -1.22
78 | G63U U131C U132A | -1.24
79 | C64U A103C G117U | -6.58
80 | G63U G77U U109A G135U | -7.04
81 | C64U G110C | -3.51
82 | C64U C89U C123U | 0.715
83 | C64U G93C | -0.827
84 | C64U C94U C102G | -7.24
85 | C64U G117C C123U U125A | -6.02
86 | G63U U78C C101A | -4.07
87 | C64U C124A | 1.41
88 | C64U A100U U130A | -1.02
89 | C64A C94A | -6.34
90 | C64U C79U | -0.541
91 | C64U C70A A111C C115G G128U | -5.81
92 | C64G C72U | -6.14
93 | C64U C114G | -2.3
94 | C64G A121G | -4.54
95 | C64G A121U | -4.94
96 | C64U A111G | 1.06

Row | Variant | polymerase ribozyme fitness (log ratio)
97 | C64U G65A A105G G113A | -6.73
98 | C64U A103U | -3.47
99 | C64A G117A | -6.29
100 | C64U C86A G122A U132A | -2.78
101 | C64G C123U | -3.63
102 | C64G C123G | -5.33
103 | G63U U78C | -2.92
104 | C64A A83G U92G C99U C104A | -8.04
105 | C64U C97A | -5.08
106 | C64U C79U U106A U109A | -5.15
107 | C64U A111C C115A | -4.52
108 | G63U G93U C123U | -1.46
109 | C64U U78C C104U | 0.13
110 | C64U A66G C86U A95U C99A G117C | -7.47
111 | C64U C115A | -0.337
112 | C64U C123G | 1.86
113 | C64U C123U | 1.23
114 | G63U U87G G117U C123A | -3.97
115 | G63U U116A | -3.57
116 | G63U U130A | -1.46
117 | G63U U130G | -0.881
118 | G63U U78A A90U C94U G122U | -3.99
119 | C64U G93A U96A U126G | -5.25
120 | C64U A111C U112C | -0.987

Row | Variant | polymerase ribozyme fitness (log ratio)
121 | C64U U78A | -0.358
122 | C64U C115U U130A | -1.66
123 | C64U C76U C89U U96A | -3.47
124 | C64A A84C | -5.15
125 | G63U G113C | -2.98
126 | G63U G113U | -4.29
127 | G63U G113A | -1.99
128 | G63U U134C | -2.26
129 | G63U C101U | -2.57
130 | C64U C114G C115A C123G C124A | -4.37
131 | G63U U112C | -0.421
132 | G63U U112A | -0.0798
133 | C64A C123U | -4.1
134 | C64A C123G | -3.71
135 | C64A C123A | -3.79
136 | G63U U106G | -3.21
137 | C64G C115A G128A U130C | -5.49
138 | C64U C82U G93U C94U U96C C123U | -3.01
139 | G63U G120U | -0.921
140 | G63U U78C C94A | -3.61
141 | C64U C73G C94U G120C | -3.99
142 | C64U A84C | 0.992
143 | C64U A84U | -0.154
144 | C64U U78C A83C A100C C101G U129G | -3.92

Row | Variant | polymerase ribozyme fitness (log ratio)
145 | C64U C79A G110A | -3.21
146 | G63U C94A A108G | -5.53
147 | C64U G122A | -0.796
148 | G63U C101A U116C A119G G120U | -3.85
149 | C64U G107U U130C | -6.04
150 | C64U C82A A91U G127U | -2.81
151 | C64A G120A | -5.35
152 | C64A G120U | -6.12
153 | G63U U112A A119G | -0.127
154 | C64U A118G | -1.18
155 | G63U G120U U126A | -1.69
156 | C64U G77A C80A U92C | -5.1
157 | G63U U116C U129A | -3.33
158 | C64U G77C C79U C98A A121U U133C | -2.71
159 | G63U U78C C123U | -1.9
160 | G63U U67A | -6.27
161 | C64U G65A | -4.3
162 | G63U C123G | 0.817
163 | G63U G77A | -3.45
164 | C64G G65U C79G C104A C115A C123G | -6.93
165 | C64U C72G U78A G127U U129C | -1.9
166 | C64U G77A | -0.391
167 | C64U G77U | -0.465
